Measured values published in US8367390B2, “Galactanase variants” (Novozymes A/S, priority 2002, dated 2013).

Assay: Activity with ONPG, release of o-nitrophenol (ONP) at 405 nm
Format: biochemical
Details: for Time (min) to increase A405 by: 0.025 / Time (min) to increase A405 by: 0.05 / Time (min) to increase A405 by: 0.1 / Time (min) to increase A405 by: 0.2 / Time (min) to increase A405 by: 0.4 / Time (min) to increase A405 by: 0.8 / Time (min) to increase A405 by: 1.6 / Time (min) to increase A405 by: 3.2: Table 8, ONPG 5 mg/ml
Protocol: The activity of HIGAL and MTGAL with ONPG was tested by mixing 200 microliters (normally 5.5 mg/ml) ONPG in 50 mM sodium acetate, 1 mM CaCl2, 0.01% Triton X-100, pH 6.5 with 25 microliters galactanase (normally 1 mg/ml) in the well of a microtiter plate. Release of o-nitrophenol (ONP) was measured at room temperature at 405 nm every 10 seconds normally for 30 min on a SpectraMaxPlus (Molecular Devices). Effects on the observed release of ONP was studied with varied enzyme concentration, ONPG concentration and with addition of galactose (Gal), beta-1,4-galactobiose (Gal2) (Megazyme), beta-1,4-galactotriose (Gal3), beta-1,4-galactotetraose (Gal4), glucose (Glu), arabinose (Ara), galacturonic acid (GalA), maltose (Mal) or maltotriose (Mal3).
In Tables 8-11 below, incubation times required to increase the observed absorbance at 405 nm by given amounts are listed. Cells marked ‘n.r.’ indicate that the increase in absorbance was not reached in the experiment. In general, the initial increase in absorbance at 405 nm was very slow, but after a lag phase the rate of ONP release often increased drastically—often approximately exponentially. The most likely explanation for the observed kinetics is that ONPG reacts with the enzyme to give an enzyme-galactosyl intermediate which hydrolyses very slowly. Instead, the Gal of the intermediate is released by transglycosylation, initially with ONPG or added sugar as acceptor. In cases where the rate of ONP release increases, these transglycosylation products are even better acceptors than the initial ones. […] More likely, Gal inhibits the subsequent transglycosylation, which requires binding of ONPG to the +1 and +2 subsites, e.g., by binding to the +2 subsite. With 50 mg/ml Gal added (results not shown) release of ONP was even slower with only insignificant increase of absorbance at 405 nm in 30 min.

B1: MTGAL: GH Family 53 galactanase from Myceliophthora thermophila, SEQ ID NO: 1 (wild type parent) (protein, listed as Myceliophthora thermophila)
chain: ALTYRGVDWSSVVVEERAGVSYKNTNGNAQPLENILAANGVNTVRQRVWVNPADGNYNLDYNIAIAKRAKAAGLGVYIDFHYSDTWADPAHQTMPAGWPSDIDNLSWKLYNYTLDAANKLQNAGIQPTIVSIGNEIRAGLLWPTGRTENWANIARLLHSAAWGIKDSSLSPKPKIMIHLDNGWDWGTQNWWYTNVLKQGTLELSDFDMMGVSFYPFYSSSATLSALKSSLDNMAKTWNKEIAVVETNWPISCPNPRYSFPSDVKNIPFSPEGQTTFITNVANIVSSVSRGVGLFYWEPAWIHNANLGSSCADNTMFSQSGQALSSLSVFQRI
modifications: mat_peptide (1)..()
For B1, the “Slowing of ONP release by addition of Gal” value (Gal 5 mg/ml) was “about a factor of two”, the “Time (min) to increase A405 by: 0.025” value (enzyme 28 μg/ml, no sugar) was 40.4 min and the “Time (min) to increase A405 by: 0.05” value (enzyme 28 μg/ml, no sugar) was “n.r”. The “Time (min) to increase A405 by: 0.1” value (enzyme 28 μg/ml, no sugar) was “n.r”, the “Time (min) to increase A405 by: 0.2” value (enzyme 28 μg/ml, no sugar) was “n.r” and the “Time (min) to increase A405 by: 0.4” value (enzyme 28 μg/ml, no sugar) was “n.r”. For the same molecule, the “Time (min) to increase A405 by: 0.8” value (enzyme 28 μg/ml, no sugar) was “n.r”, the “Time (min) to increase A405 by: 1.6” value (enzyme 28 μg/ml, no sugar) was “n.r” and the “Time (min) to increase A405 by: 3.2” value (enzyme 28 μg/ml, no sugar) was “n.r”. For the same molecule, the “Time (min) to increase A405 by: 0.025” value (enzyme 55 μg/ml, Gal 5 mg/ml) was 40.2 min, the “Time (min) to increase A405 by: 0.05” value (enzyme 55 μg/ml, Gal 5 mg/ml) was “n.r” and the “Time (min) to increase A405 by: 0.1” value (enzyme 55 μg/ml, Gal 5 mg/ml) was “n.r”. For the same molecule, the “Time (min) to increase A405 by: 0.2” value (enzyme 55 μg/ml, Gal 5 mg/ml) was “n.r”, the “Time (min) to increase A405 by: 0.4” value (enzyme 55 μg/ml, Gal 5 mg/ml) was “n.r” and the “Time (min) to increase A405 by: 0.8” value (enzyme 55 μg/ml, Gal 5 mg/ml) was “n.r”. For the same molecule, the “Time (min) to increase A405 by: 1.6” value (enzyme 55 μg/ml, Gal 5 mg/ml) was “n.r”, the “Time (min) to increase A405 by: 3.2” value (enzyme 55 μg/ml, Gal 5 mg/ml) was “n.r” and the “Time (min) to increase A405 by: 0.025” value (enzyme 55 μg/ml, no sugar) was 29.9 min. The “Time (min) to increase A405 by: 0.05” value (enzyme 55 μg/ml, no sugar) was 42.5 min, the “Time (min) to increase A405 by: 0.1” value (enzyme 55 μg/ml, no sugar) was 54.5 min and the “Time (min) to increase A405 by: 0.2” value (enzyme 55 μg/ml, no sugar) was “n.r”. The “Time (min) to increase A405 by: 0.4” value (enzyme 55 μg/ml, no sugar) was “n.r”, the “Time (min) to increase A405 by: 0.8” value (enzyme 55 μg/ml, no sugar) was “n.r” and the “Time (min) to increase A405 by: 1.6” value (enzyme 55 μg/ml, no sugar) was “n.r”. The “Time (min) to increase A405 by: 3.2” value (enzyme 55 μg/ml, no sugar) was “n.r”, the “Time (min) to increase A405 by: 0.025” value (enzyme 110 μg/ml, Gal 5 mg/ml) was 26.9 min and the “Time (min) to increase A405 by: 0.05” value (enzyme 110 μg/ml, Gal 5 mg/ml) was 44.5 min. The “Time (min) to increase A405 by: 0.1” value (enzyme 110 μg/ml, Gal 5 mg/ml) was “n.r”, the “Time (min) to increase A405 by: 0.2” value (enzyme 110 μg/ml, Gal 5 mg/ml) was “n.r” and the “Time (min) to increase A405 by: 0.4” value (enzyme 110 μg/ml, Gal 5 mg/ml) was “n.r”. The “Time (min) to increase A405 by: 0.8” value (enzyme 110 μg/ml, Gal 5 mg/ml) was “n.r”, the “Time (min) to increase A405 by: 1.6” value (enzyme 110 μg/ml, Gal 5 mg/ml) was “n.r” and the “Time (min) to increase A405 by: 3.2” value (enzyme 110 μg/ml, Gal 5 mg/ml) was “n.r”. The “Time (min) to increase A405 by: 0.025” value (enzyme 110 μg/ml, no sugar) was 14.0 min, the “Time (min) to increase A405 by: 0.05” value (enzyme 110 μg/ml, no sugar) was 20.5 min and the “Time (min) to increase A405 by: 0.1” value (enzyme 110 μg/ml, no sugar) was 26.4 min. For the same molecule, the “Time (min) to increase A405 by: 0.2” value (enzyme 110 μg/ml, no sugar) was 31.4 min, the “Time (min) to increase A405 by: 0.4” value (enzyme 110 μg/ml, no sugar) was 34.5 min and the “Time (min) to increase A405 by: 0.8” value (enzyme 110 μg/ml, no sugar) was 39.2 min. The “Time (min) to increase A405 by: 1.6” value (enzyme 110 μg/ml, no sugar) was 43.9 min and the “Time (min) to increase A405 by: 3.2” value (enzyme 110 μg/ml, no sugar) was 46.7 min.
